Test results: patent US20220251222A1, “IL-6Ralpha/IL-8R BISPECIFIC BINDING AGENTS FOR INHIBITING CANCER CELL MIGRATION” (The Johns Hopkins University, priority 2019, published 2022)

Tests used:
[1] = target: T1, IL-8 binding to IL-8R (Homo sapiens, UniProt P25025); assay: IL-8 cell surface binding inhibition on IL-6Rα−/IL-8R+ HEK 293T cells; details: His-tagged IL-8 400 nM
T1 construct: expressed in transfected cells; host or cells: HEK 293T, lentiviral transduction (IL-6Rα−/IL-8R+)
T1 sequence (P25025 1-360): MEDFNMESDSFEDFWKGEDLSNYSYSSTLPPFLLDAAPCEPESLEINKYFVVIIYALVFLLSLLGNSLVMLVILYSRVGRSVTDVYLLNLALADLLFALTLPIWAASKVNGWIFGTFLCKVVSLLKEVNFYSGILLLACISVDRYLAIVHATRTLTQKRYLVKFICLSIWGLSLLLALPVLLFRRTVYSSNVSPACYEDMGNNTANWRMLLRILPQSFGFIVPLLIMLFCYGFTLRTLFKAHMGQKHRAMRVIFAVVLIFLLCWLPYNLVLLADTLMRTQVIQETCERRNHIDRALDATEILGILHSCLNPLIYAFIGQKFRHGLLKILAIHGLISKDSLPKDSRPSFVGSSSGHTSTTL
Experimental: Cells were then washed and incubated with 1:200 dilution of Alexa Fluor 647-conjugated streptavidin (Fisher Scientific, cat #: S21374) in PBSA for 15 min at 4° C. […] Curves were fitted to a first-order logistic model and IC50 values were calculated using GraphPad Prism data analysis software. Mean fluorescence intensity (MFI) of unstimulated cells was subtracted. […]

[2] = target: T2, IL-6Rα (Homo sapiens, UniProt P08887); assay: Cell surface binding on IL-6Rα+/IL-8R− HEK 293T cells (flow cytometry); details: 2 hr at 4° C.
T2 construct: expressed in transfected cells; host or cells: HEK 293T, lentiviral transduction (pCDH backbone)
T2 sequence (P08887 20-468): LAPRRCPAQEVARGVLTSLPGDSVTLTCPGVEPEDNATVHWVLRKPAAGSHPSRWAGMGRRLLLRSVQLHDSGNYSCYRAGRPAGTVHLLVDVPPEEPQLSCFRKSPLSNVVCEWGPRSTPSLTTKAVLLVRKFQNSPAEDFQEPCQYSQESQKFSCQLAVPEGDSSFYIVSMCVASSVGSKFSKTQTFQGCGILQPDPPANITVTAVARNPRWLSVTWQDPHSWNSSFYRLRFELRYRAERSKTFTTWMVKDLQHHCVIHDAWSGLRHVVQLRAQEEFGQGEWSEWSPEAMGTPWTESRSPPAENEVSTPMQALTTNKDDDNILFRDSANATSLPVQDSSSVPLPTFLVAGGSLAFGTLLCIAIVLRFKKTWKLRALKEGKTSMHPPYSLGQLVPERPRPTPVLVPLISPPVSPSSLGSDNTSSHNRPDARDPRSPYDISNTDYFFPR
Text: GeneJuice (Sigma Aldrich) was used as the transfection reagent.
Mean fluorescence intensity (MFI) of unstimulated cells was subtracted.

Substance: tocilizumab
- IC50, competition with IL-8 binding to IL-8R [1]: did not exert any inhibitory effects
- KD, binding to IL-6Rα on cells [2]: only recognized IL-6Rα^+ cells
